Test results from US20090215075A1, “THREE-DIMENSIONAL STRUCTURE OF A DNAB-FAMILY R[…] (G40P), USES THEREOF, AND METHODS FOR […]-BACTERIAL PATHOGENS BY […] HELICASES AND THE INTERACTIONS OF DNAB HELICASE WITH PRIMASE” (priority 2007, published 2009).

B1: B. subtilis DnaG primase (protein)
chain: MGNRIPDEIVDQVQKSADIVEVIGDYVQLKKQGRNYFGLCPFHGESTPSFSVSPDKQIFHCFGCGAGGNVFSFLRQMEGYSFAESVSHLADKYQIDFPDDITVHSGARPESSGEQKMAEAHELLKKFYHHLLINTKEGQEALDYLLSRGFTKELINEFQIGYALDSWDFITKFLVKRGFSEAQMEKAGLLIRREDGSGYFDRFRNRVMFPIHDHHGAVVAFSGRALGSQQPKYMNSPETPLFHKSKLLYNFYKARLHIRKQERAVLFEGFADVISAVSSDVKESIATMGTSLTDDHVKILRRNVEEIILCYDSDKAGYEATLKASELLQKKGCKVRVAMIPDGLDPDDYIKKFGGEKFKNDIIDASVTVMAFKMQYFRKGKNLSDEGDRLAYIKDVLKEISTLSGSLEQEVYVKQLASEFSLSQESLTEQLSVFSKQNKPADNSGETKTRRAHLTTKARQKRLRPAYENAERLLLAHMLRDRSVIKKVIDRVGFQFNIDEHRALAAYLYAFYEEGAELTPQHLMARVTDDHISQLLSDILMLQVNQELSEAELSDYVKKVLNQRNWSMIKEKEAERAEAERQKDFLRAASLAQEIVTLNRSLK
B2: G40P N-terminal deletion mutant ΔN129 (enzyme)
chain: GPVKPIQEAVSELMEIEASGTDDDDGSIDEALVTVYEEIESADGNITGVPSGFTELDRMTYGYKRRNFVLIAARPSMGKTAFALKQAKNMSDNDDVVNLHSLEMGKKENIKRLIVTAGSINAQKIKAARRDFASEDWGKLSMAIGEISNSNINIFDKAGQSVNYIWSKTRQTKRKNPGKRVIVMIDYLQLLEPAKANDSRTNQISQISRDLKKMARELDVVVIALSQLSRQVEQRQDKRPMLSDLRESGQLEQDADIIEFLYRDDYYDKESESKNIVEVIIAKHRDGPVGTVSLAFIKEYGNFVNLERRFDDR
notes: Forms hexamers in gel filtration; also called G40P-Δ129; G40P truncated monomer
B3: G40P N-terminal fragment N149 (other)
chain: MNPEEKTVMLYNEYAEQAVLGSILTEPELIKECPLTPEHFSPGKHFNIYFTMQDLDRKGQSVDFTSIAARVGEKLPQLGGFGYLTELAASVASTTTFKQHCQTVSEYFQKRKAISIAQQIIENVNESDDGPVKPIQEAVSELMEIEASG
notes: Contains only the N-globe and α-hairpin domains; Limits inferred from the name; Behaved like a monomer in gel filtration
B4: G40P N-terminal deletion mutant ΔN108 (enzyme)
chain: QKRKAISIAQQIIENVNESDDGPVKPIQEAVSELMEIEASGTDDDDGSIDEALVTVYEEIESADGNITGVPSGFTELDRMTYGYKRRNFVLIAARPSMGKTAFALKQAKNMSDNDDVVNLHSLEMGKKENIKRLIVTAGSINAQKIKAARRDFASEDWGKLSMAIGEISNSNINIFDKAGQSVNYIWSKTRQTKRKNPGKRVIVMIDYLQLLEPAKANDSRTNQISQISRDLKKMARELDVVVIALSQLSRQVEQRQDKRPMLSDLRESGQLEQDADIIEFLYRDDYYDKESESKNIVEVIIAKHRDGPVGTVSLAFIKEYGNFVNLERRFDDR
notes: Limits inferred from the name, by analogy with ΔN129 = residues 130-442; Forms hexamers in gel filtration
B5: G40P N-terminal fragment N171 (other)
chain: MNPEEKTVMLYNEYAEQAVLGSILTEPELIKECPLTPEHFSPGKHFNIYFTMQDLDRKGQSVDFTSIAARVGEKLPQLGGFGYLTELAASVASTTTFKQHCQTVSEYFQKRKAISIAQQIIENVNESDDGPVKPIQEAVSELMEIEASGTDDDDGSIDEALVTVYEEIESA
notes: as for B3
B6: G40P N-terminal deletion mutant ΔN112 (enzyme)
chain: AISIAQQIIENVNESDDGPVKPIQEAVSELMEIEASGTDDDDGSIDEALVTVYEEIESADGNITGVPSGFTELDRMTYGYKRRNFVLIAARPSMGKTAFALKQAKNMSDNDDVVNLHSLEMGKKENIKRLIVTAGSINAQKIKAARRDFASEDWGKLSMAIGEISNSNINIFDKAGQSVNYIWSKTRQTKRKNPGKRVIVMIDYLQLLEPAKANDSRTNQISQISRDLKKMARELDVVVIALSQLSRQVEQRQDKRPMLSDLRESGQLEQDADIIEFLYRDDYYDKESESKNIVEVIIAKHRDGPVGTVSLAFIKEYGNFVNLERRFDDR
notes: as for B4
B7: G40P N-terminal deletion mutant ΔN92 (enzyme)
chain: STTTFKQHCQTVSEYFQKRKAISIAQQIIENVNESDDGPVKPIQEAVSELMEIEASGTDDDDGSIDEALVTVYEEIESADGNITGVPSGFTELDRMTYGYKRRNFVLIAARPSMGKTAFALKQAKNMSDNDDVVNLHSLEMGKKENIKRLIVTAGSINAQKIKAARRDFASEDWGKLSMAIGEISNSNINIFDKAGQSVNYIWSKTRQTKRKNPGKRVIVMIDYLQLLEPAKANDSRTNQISQISRDLKKMARELDVVVIALSQLSRQVEQRQDKRPMLSDLRESGQLEQDADIIEFLYRDDYYDKESESKNIVEVIIAKHRDGPVGTVSLAFIKEYGNFVNLERRFDDR
notes: Lacks the N-globe and keeps an intact α-hairpin; Forms hexamers in gel filtration

These molecules were tested against G40P point mutant mt4 (assay: not given). Details: not given.
For B1, the “primase-mediated stimulation of the ATPase and helicase activity of G40P” value was “mt4 displayed much reduced primase-mediated stimulation of the ATPase and helicase activity of G40P”.

These molecules were tested against T1, B. subtilis DnaG primase (Bacillus subtilis, UniProt P05096 1-603, limits assumed) (assay: native gel shift assay, 10 ug G40P construct with 10 ug primase). Details: not given.
T1 construct: Recombinant
T1 sequence (looked up): B1 chain
Description: G40P/DnaB replicative helicases bind DnaG primase at the replication fork, this interaction is important for coordinating DNA unwinding by the helicase with RNA primer synthesis by the primase. We investigated the requirement of N-terminal domain of G40P in primase binding using the N-terminal deletions. […] We next examined if the isolated N-terminal domain of G40P can bind primase. The two constructs containing only the N-terminal α-hairpin and N-globe domains (N149 and N171) had no detectable primase binding in native gel shift assays (FIGS. 4d and 11). Both constructs behaved like monomers in gel filtration (data not shown).
(§1) Interactions between G40P and B. subtilis DnaG primase were examined using a native gel shift assay. 10 ug of various G40P constructs were mixed with 10 ug primase in a buffer containing 25 mM TrisHCl pH 8.0, 50 mM NaCl, 5 mM MgCl₂, and 1 mM ATP-γ-S and incubated for 30 minutes on ice. The protein mixtures were then analyzed by 6% polyacrymamide native gel electrophoresis at 150 voltage for one hour at 4 degrees C. The gel was stained by Coomassie blue for detection.
B2: no binding.
B3: no binding.
B4: no binding.
B5: no binding.
B6: no binding.
B7: no binding.

Each molecule was assayed on 32P-labeled 60-base oligonucleotide annealed to circular M13mp18 ssDNA (assay: Helicase assay). Details: absence of primase; relative to full-length (wt) G40P.
Format: biochemical
Procedure: The substrate for the helicase assay was prepared by annealing a ^32P-labeled ssDNA (a 60-base oligonucleotide) to the circular M13mp18 ssDNA. This oligonucleotide has 35 nucleotides annealed to the M13 DNA, leaving a 25-nucleotide 5′ overhang. The substrate DNA was incubated with various amounts of different G40P mutant proteins in the presence or absence of primase at 37 degrees C. for 30 minutes in a buffer containing 20 mM Tris-HCl (pH 7.5), 5 mM ATP, 10 mM MgCl2, 1 mM DTT, and 50 mM NaCl. The reaction was terminated by adding a stop solution containing 100 mM EDTA, 0.5% SDS, and 50% glycerol. Samples were analyzed on a 12% native polyacrylamide gel in 1 M Tris/borate/EDTA running buffer. The unwinding of the substrate DNA was detected by autoradiography.
B7 was tested, and the “helicase activity retained, of the wt activity” value was roughly 66%.

Same assay, conditions: compared with wt G40P
For B2, the “helicase activity (in words)” value was “no detectable helicase activity”.
With B4 the “helicase activity (in words)” value was “no detectable helicase activity”.
With B6 the “helicase activity (in words)” value was “no detectable helicase activity”.

What follows are molecules tested against T2, B. subtilis DnaG primase (Bacillus subtilis, UniProt P05096) (assay: Native gel shift assay of primase binding). Details: native gel shift with B. subtilis DnaG primase.
T2 construct: GST (N); made in house; host or cells: E. coli
Procedure: as §1, with “MgCl2,” for “MgCl₂,”
For B2, the primase binding was “devoid of primase binding”.
For B3, the primase binding was “no detectable primase binding”.
In the case of B4, the primase binding is reported as “devoid of primase binding”.
In the case of B5, the primase binding is reported as “no detectable primase binding”.
For B6, the primase binding was “devoid of primase binding”.
For B7, the primase binding was “devoid of primase binding”.
